We go through 1 protein from US20260266838.

For this data set, the target named is T1, Recombinant CC16 (uteroglobin SCGB1A1), P11684.
T1 chain: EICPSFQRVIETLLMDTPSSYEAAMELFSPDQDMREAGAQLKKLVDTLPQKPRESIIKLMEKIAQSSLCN

B1: native human neutrophil elastase (protein)
chain: IVGGRRARPHAWPFMVSLQLRGGHFCGATLIAPNFVMSAAHCVANVNVRAVRVVLGAHNLSRREPTRQVFAVQRIFENGYDPVNLLNDIVILQLNGSATINANVQVAQLPAQGRRLGNGVQCLAMGWGLLGRNRGIASVLQELNVTVVTSLCRRSNVCTLVRGRQAGVCFGDSGSPLVCNGLIHGIASFVRGGCASGLYPDAFAPVAQFVNWIDSIIQ
For the protein B1, the “in vitro cleavage (mass spectrometry of fragments)” value was “two peptides with unique amino acid sequences released from HNE-mediated cleavage of CC16 in vitro”.
